Laboratory results as given in patent US8034572B2, “Receptor for GDNF family ligands” (priority 2006, dated 2011).
Where “and” joins values, the source holds several entries; their conditions need not be identical. Identical values can stand only once. Like-named read-outs stand apart in the source and are kept apart here.

T1: GDNF (Homo sapiens, UniProt P39905)
T1 construct: purchased PeproTech, Ltd. or R&D Systems, Inc
T1 sequence (P39905 78-211 limits assumed): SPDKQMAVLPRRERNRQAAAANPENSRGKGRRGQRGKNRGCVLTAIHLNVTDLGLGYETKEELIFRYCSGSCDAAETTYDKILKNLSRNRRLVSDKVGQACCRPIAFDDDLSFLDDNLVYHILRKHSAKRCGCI

B1: NRTN: neurturin, secreted growth factor, GDNF family ligand (protein)
chain: ARLGARPCGLRELEVRVSELGLGYASDETVLFRYCAGACEAAARVYDLGLRRLRQRRRLRRERVRAQPCCRPTAYEDEVSFLDAHSRYHTVHELSARECACV
B2: PSPN: persephin, secreted growth factor, GDNF family ligand (protein)
chain: ALSGPCQLWSLTLSVAELGLGYASEEKVIFRYCAGSCPRGARTQHGLALARLQGQGRAHGGPCCRPTRYTDVAFLDDRHRWQRLPQLSAAACGCGG
B3: HB-GAM: ECM molecule, another syndecan-3-specific ligand (protein)
chain: GKKEKPEKKVKKSDCGEWQWSVCVPTSGDCGLGTREGTRTGAECKQTMKTQRCKIPCNWKKQFGAECKYQFQAWGECDLNTALKTRTGSLKRALHNADCQKTVTISKPCGKLTKPKPQAESKKKKKEGKKQEKMLD

How the values were obtained:
GDNF [1] = molecular target: T1, GDNF; assay: SPR: direct binding of heparin or desulfated heparins to GDNF cuvette
Description: (§1) Specifically desulfated heparins (Takano et al., 1998) were used to assess the involvement of different sulfate groups in the GDNF-heparin interaction by following direct binding to GDNF cuvette, or by competing out GDNF binding to the heparin-BSA cuvette. Dissociation constants were determined from direct binding using increasing GDNF concentrations and by fitting the data to R=(Rmax*C)/(Kd+C) for heparin. For desulfated heparins, the best fit was achieved using equation R=(Rmax1*C)/(Kd1+C)+(Rmax2*C)/(Kd2+C), where Kd1 and Kd2 are apparent dissociation constants derived for two heparin sites of different affinities with maximum equilibrium response Rmax1 and Rmax2, respectively.

GDNF [2] = molecular target: T1, GDNF; assay: SPR: competition of GDNF binding to heparin-BSA cuvette by heparin and desulfated heparins; settings: competing out GDNF binding to heparin-BSA cuvette
Description: as §1

SHEP cells = assay: SHEP cell adhesion and spreading assay on immobilized proteins; format: cell-based, human; settings: for adherence and spreading of SHEP cells on immobilized protein: protein immobilized on plastic microplate
Description: Cell adhesion assays were essentially performed as described elsewhere (Weinacker et al., 1994). To prepare protein-coated surfaces the protein of interest (10 μg/ml in PBS) was applied to 96-well ELISA (Greiner) plates or to glass cover slips for 12-18 hours at +4° C. After incubation, the surfaces were washed with PBS and blocked with 1% globulin-free BSA for two hours. Some GDNF coated surfaces were incubated with 20 μg/ml of G-90 (Amgen) GDNF function-blocking antibodies (Xu et al., 1998) for 2 hours at room temperature.
Subconfluent SHEP cells were harvested in PBS supplemented with 10 mM EDTA for 5 min at 37° C. Cells were washed with incubation buffer (RPMI 1640, 0.2% BSA, 15 mM HEPES pH 7.2) and 10000-40000 cells/well plated on the protein coated surface. Plates were centrifuged for 5 min at 10 g and incubated for one hour at 37° C. in 5% CO2. After incubation cells were washed with PBS, fixed with methanol supplemented with crystal violet for 15 min at room temperature and washed again with PBS. The remaining cells were counted using a Leica DMIRB inverted microscope with 10× objective in 5 fields per well.
Some cells were pretreated with heparinase III, PI-PLC (see above), 0.3 U/ml chodroitinase ABC for one hour at 37° C., 5% CO2, or with 20 μg/ml of NCAM blocking antibodies (AB5032, Chemicon Inc.) for 15-30 min on ice.
After one hour of incubation in serum-free medium unattached cells were removed by washing. The remaining cells were stained and counted on Leica DMIRB inverted microscope with a 10× objective in 5 fields per well and the resulting cell number was calculated for the whole well.
Live SHEP cells spreading on immobilized GDNF were imaged for 20 minutes using the Till imaging system with an Imago-QE digital camera (Till Photonics) equipped with heating (+37° C.) and CO2 supply (5%) chambers.

[3] = tested on: rat embryonic hippocampal neurons; assay: Neurite outgrowth assay in E17 rat hippocampal neurons; format: cell-based; settings: E17 rat hippocampal neurons
Description: Hippocampi were dissected from E17 embryonic rat brains under the microscope and transferred to the preparation media (HBBS without Ca^2+ and Mg^2+ supplemented with 1 mM sodium pyruvate (Gibco) and buffered by 10 mM Hepes pH 7.2), then partially digested by papain and triturated in the preparation media supplemented with DNase I. Cells were washed with HBBS containing Ca^2+ and Mg^2+ and transferred to the growth media (Neurobasal media with B27 supplement, 2 mM L-glutamine, 25 μM glutamic acid and penicillin and streptomycin (Gibco)). For enzymatic treatments neurons were kept in the growth media supplemented with 0.2% BSA at +37° C. for one hour. After the treatment cells in the same media were seeded on the protein-coated cover slips (see above) and after 10 min, the media was changed for B27-free media. Neurons were incubated at +37° C., 5% CO2 for 18 hours.
For immunocytochemistry neurons were washed with PBS and fixed with 4% PFA, permeabilized with 0.1% Triton X-100 and stained with rabbit polyclonal antiserum to Protein Gene Product 9.5 (Affiniti), neuron-specific Class III tubulin-βIII clone Tuj1 antibodies (BABCO) or with antibodies against the neurofilament triplet, 13AA8 (Arumäe et al., 1993). Secondary antibodies were goat anti-rabbit or anti-mouse Alexa488-conjugated (Molecular Probes).
The immunostained cultures were viewed using the ×20 objective of a Zeiss Axioplan 2 fluorescent microscope (Zeiss). Neurons with at least two times longer than cell body diameter processes were considered process-bearing. Three cover slips were used in parallel and 100 neurons per cover slip were counted. Results were derived from 3 to 5 independent experiments.

[4] = Binding of ^125I-labeled GFLs to heparin-sepharose column, step NaCl elution; settings: for NaCl concentration at elution from heparin-sepharose column: ^125I-GFLs, step NaCl gradient; for binding to heparin-sepharose column: ^125I-labeled GFLs
Description: GFL iodination was performed as described (Lindahl et al., 2001). Heparin-sepharose column (Amersham Biosciences) chromatography was performed to assess GFL binding to heparin. GDNF, ARTN, NRTN and PSPN were purchased from PeproTech, Ltd. or R&D Systems, Inc. GFLs were enzymatically labeled with carrier-free [^125I]NaI (Amersham Biosciences) by the lactoperoxidase method to a specific activity of 100000-200000 cpm/ng as described elsewhere (Lindahl et al., 2001). 15000-20000 cpm of iodinated GFLs, together with 10 μg of the same unlabeled protein as a carrier, were injected into a 1 ml heparin-sepharose column (Amersham Biosciences) in phosphate buffer pH 7.2 containing 100 mM NaCl and 10 mg/ml of BSA. After washing with 5 volumes of the same buffer, iodinated GFLs were eluted from the column by step elution (2 ml) with increasing NaCl concentration. The resulting fractions were counted on Rackbeta 1214 (LKB/Wallac) scintillation counter.

[5] = SPR (IAsys): GFLs interaction with heparin-BSA cuvette; format: binding; settings: for ka (×10^−5) (M^−1s^−1) / kdis: GFL in solution; for Kd = kdis/ka: from dynamics; for Kd: from equilibrium response
Description: (§2) The affinities of GFLs for heparin and heparin-like molecules (e.g. syndecan-3) were determined by plasmon surface resonance using the IAsys system (Affinity Sensors, Cambridge, UK). Planar aminosilane cuvettes (Affinity Sensors) were used for protein coupling to avoid problems with mass transport, which occur frequently with matrix surfaces. In the initial approach, heparin-BSA was immobilized to the cuvette surface using the manufacturer's instructions and different ligand concentrations were used to determine association (ka) and dissociation (kdis) rates using the IAsys Fastfit software. The dissociation constant Kd was determined from the binding dynamics as […], or from equilibrium response (R) using a simple Langmuir fit: R=(Rmax*C)/(Kd+C), where C is the ligand concentration. […] The dissociation constants were determined from binding dynamics and equilibrium response. The same cuvettes were used to test binding of heparan sulfate proteoglycan syndecan-3, which was purified as an ectodomain from early postnatal rat brains by HB-GAM affinity chromatography (Raulo et al., 1994).
(§3) Binding was analyzed using IAsys cuvettes with immobilized heparin-BSA or GFLs. The dissociation constant Kd was determined from dynamics of association and dissociation (Kd=kdis/ka), or from equilibrium response R (R=(Rmax*C)/(Kd+C), where C is ligand concentration).

syndecan-3 ectodomain = molecular target: T2, syndecan-3 ectodomain (Rattus norvegicus, UniProt P33671); assay: SPR (IAsys): syndecan-3 ectodomain interaction with GFLs cuvette; format: binding; settings: syndecan-3 ectodomain in solution
T2 construct: purified as an ectodomain from early postnatal rat brains; from tissue; host or cells: early postnatal rat brain
T2 sequence (P33671 45-387 limits assumed): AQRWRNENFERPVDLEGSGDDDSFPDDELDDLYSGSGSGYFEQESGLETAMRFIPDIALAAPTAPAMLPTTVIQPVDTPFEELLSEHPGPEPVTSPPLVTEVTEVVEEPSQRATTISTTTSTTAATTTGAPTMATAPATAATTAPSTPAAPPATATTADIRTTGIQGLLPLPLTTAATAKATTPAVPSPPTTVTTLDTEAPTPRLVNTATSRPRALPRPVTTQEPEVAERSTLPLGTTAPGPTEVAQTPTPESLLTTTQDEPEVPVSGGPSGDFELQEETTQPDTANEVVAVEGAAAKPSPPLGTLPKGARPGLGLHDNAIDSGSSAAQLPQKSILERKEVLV
Description: as §2, §3

[6] = SPR (IAsys): heparin interaction with GFLs cuvette; format: binding; settings: for ka (×10^−5) (M^−1s^−1) / kdis: heparin in solution; for Kd = kdis/ka: from dynamics
Description: as §2, §3

GDNF-syndecan-3 complex = molecular target: T3, GDNF-syndecan-3 complex (UniProt P33671+P39905); assay: Chemical cross-linking of ^125I-GDNF to C6 cells and immunoprecipitation with anti-syndecan-3; format: cell-based, rat; settings: heparin 1 μg/ml; HB-GAM 150-fold molar excess; added with ^125I-GDNF
T3 construct: the rat glioma C6 cell line, which expresses syndecan-3; endogenous in cells; host or cells: rat glioma C6 cells (syndecan-3); GDNF purchased from PeproTech or R&D Systems and iodinated
T3 sequence (P33671 45-442, one chain of several): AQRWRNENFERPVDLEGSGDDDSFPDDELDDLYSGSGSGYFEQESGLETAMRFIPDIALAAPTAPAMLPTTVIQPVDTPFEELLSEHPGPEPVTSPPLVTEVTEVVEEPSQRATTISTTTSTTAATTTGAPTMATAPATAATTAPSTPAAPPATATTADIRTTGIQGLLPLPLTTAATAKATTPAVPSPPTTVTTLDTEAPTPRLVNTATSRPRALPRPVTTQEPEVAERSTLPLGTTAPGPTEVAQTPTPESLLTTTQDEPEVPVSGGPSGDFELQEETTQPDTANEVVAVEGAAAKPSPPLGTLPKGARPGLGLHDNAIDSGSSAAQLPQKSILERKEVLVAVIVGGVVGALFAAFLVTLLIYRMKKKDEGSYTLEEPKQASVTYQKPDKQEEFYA
Description: Glioma C6 cells were plated on 6-well plates and grown to 70% confluency. Cells were incubated with 1 nM ^125I-GDNF for 2 hours in binding buffer (Dulbecco's modified Eagle's medium, 0.2% BSA and 15 mM Hepes, pH 7.2) on ice. Unbound ligand was removed by washing three times with ice-cold PBS. The chemical cross-linker ethyl-dimethyl-aminopropyl-carbodimide (EDAC) supplemented with N-hydroxysuccinimide (NHS) (Sigma) was incubated with cells for 20 min at room temperature in PBS. The reaction was quenched with TBS for 15 min and cells were lysed in lysis buffer (TBS, 1% Triton X-100, 1% NP-40, 2 mM EDTA, 1 mM PMSF and Complete protease inhibitor mixture from Roche Molecular Biochemicals). Cell lysates were immunoprecipitated with anti-syndecan-3 antibodies (Nolo et al., 1995) and resolved on 7.5% SDS-PAGE. Autoradiography was performed with BAS1500 (Fuji). For heparinase III or PI-PLC treatment cells were incubated with 10 mU/ml heparinase III or with 1 U/ml PI-PLC, respectively for one hour at 37° C., 5% CO2 before ^125I-GDNF addition.

[7] = apparent Kd from equilibrium response, read-out: Kd1
[8] = apparent Kd of second site, two-site fit, read-out: Kd2
[9] = pretreatment of cells with SFK inhibitor
[10] = GFLs cuvette, from equilibrium response, read-out: Kd (equilibrium)

Molecule | Kd (GDNF [1]; [7]) [µM] | Kd (GDNF [1]; [8]) | IC50 (GDNF [2]) [ng/mL] | NaCl concentration at elution from heparin-sepharose column [4] [M] | binding to heparin-sepharose column [4] | adherence and spreading of SHEP cells on immobilized protein (SHEP cells) | ka (×10^−5) (M^−1s^−1) [5] | kdis [5] [s⁻¹] | Kd = kdis/ka [5] [nM] | Kd [5] [nM] | ka (×10^−5) (M^−1s^−1) ([6]; GFLs cuvette) | kdis ([6]; GFLs cuvette) [s⁻¹] | also measured
2-O-desulfated heparin | 0.0354 ± 0.0075 | 9.5 µM | 4.3 |  |  |  |  |  |  |  |  |  | 
6-O-desulfated heparin | 0.0363 ± 0.0046 | 18 µM and 18.1 µM | 1.3 |  |  |  |  |  |  |  |  |  | 
CN(C)S(=O)(=O)c1ccc2c(c1)/C(=C/c1cc3c([nH]1)CCCC3)C(=O)N2 [SU6656, reference compound] |  |  |  |  |  |  |  |  |  |  |  |  | effect on SHEP cell adherence on immobilized GDNF (SHEP cells; [9]): did not impair their adherence; effect on SHEP cell spreading on immobilized GDNF (SHEP cells; [9]): diminished their spreading; effect of inhibitor on neurite outgrowth on immobilized GDNF [3]: prevented neurite outgrowth
ARTN: artemin, secreted growth factor, GDNF family ligand |  |  |  | 1 to 1.5 | bind strongly to heparin | induced adherence and spreading | 0.09 (×10^−5) M^−1s^−1 | 0.0013 | 148 ± 39 | 187 ± 34 | 8.0 (×10^−5) M^−1s^−1 | 0.042 | ka (×10^−5) (M^−1s^−1) (syndecan-3 ectodomain): 6.3 ± 0.7 (×10^−5) M^−1s^−1; Kd = kdis/ka ([6]; GFLs cuvette): 44.7 ± 12.3 nM; Kd [6, 10]: 13 ± 3.9 nM
N-desulfated heparin | 0.0291 ± 0.0064 | 11.4 µM | 2.3 |  |  |  |  |  |  |  |  |  | 
B1 |  |  |  | 1.5 | bind strongly to heparin | induced adherence and spreading | 3.2 (×10^−5) M^−1s^−1 | 0.018 | 59.4 ± 6.2 | 47 ± 7 | 1.9 (×10^−5) M^−1s^−1 | 0.022 | ka (×10^−5) (M^−1s^−1) (syndecan-3 ectodomain): 7.5 ± 1.6 (×10^−5) M^−1s^−1; Kd = kdis/ka ([6]; GFLs cuvette): 114 ± 44 nM; Kd [6, 10]: 23.7 ± 7.7 nM; Kd ([6]; SPR, dynamics, read-out: dynamics-derived Kd for heparin): > 100 nM
B2 |  |  |  | 0.5 | does not | failed to adhere and spread | 0.87 (×10^−5) M^−1s^−1 | 0.093 | 1072 ± 118 | > 1000 | 0.02 (×10^−5) M^−1s^−1 | 0.064 | Kd ([6]; SPR, dynamics, read-out: Kd for heparin (dynamics)): 29100 nM; Kd ([6]; SPR, equilibrium, read-out: Kd for heparin (equilibrium)): 11100 nM; neurite outgrowth on immobilized protein ([3]; 18 hours): failed to form processes
B3 |  |  |  |  |  |  |  |  |  |  |  |  | effect on ^125I-GDNF binding to syndecan-3 on C6 cells (GDNF-syndecan-3 complex): displaced
